Substrate in the series “purified protein”: C[S+](CC[C@H](N)C(=O)O)C[C@H]1O[C@@H](n2cnc3c(N)ncnc32)[C@H](O)[C@@H]1O
In words: purified protein. Conditions: Mg2+; DNA 1 μM (which DNA not stated); enzyme 400 nM; AdoMet 50 nM-2 μM; 30 min; labelled compound.

Series [1] deals with the molecule itself. In words: SEC; Superose 6 HR 10/30, buffer B (10 mM Tris-HCl pH 7.4, 100 mM NaCl, 0.1 mM EDTA, 10% glycerol, 7 mM beta-mercaptoethanol), 0.2 mL/min; 3-15 uM M.EcoP1I loaded; column calibrated with marker proteins.

B1: EcoP1I DNA methyltransferase (M.EcoP1I) (Escherichia phage P1) (protein)
chain: MKKETIFSEVETANSKQLAVLKANFPQCFDKNGAFIQEKLLEIIRASEVELSKESYSLNWLGKSYARLLANLPPKTLLAEDKTHNQQEENKNSQNLLIKGDNLEVLKHMVNAYAEKVNMIYIDPPYNTGKDGFVYNDDRKFTPEQLSELAGIELDEANRILEFTTKGSSSHSAWLTFIYPRLYIARELLKEDGVIFISIDDNEDKQLGLLCDEVFGQGNFVAKLPTIMNLKGNHDNFGFSDTHEYIYVYAKNKDVCSLGQFDIDESEVEKEWDEDEYGLFKRADTLKRTGQDASRKSRPKGWFPVFINSENKVYVTDDDKPLNEDDYVLYPVSPTGEELSWSWGKKKINDEFYNLIVIDIKDGKNIYKKQRPALGELPTKKPKSIWYKPEYSTSTATTELKNLLGAKLFEGPKPVPLITDLVKIGTKKDSLVLDFFAGSGTTAEAVAYLNEKDSGCRNFICIQKDEVINKTKNAYSLGYRSIFEITKKRIQEVFKKSTTTSDNAAKIGFKVIHTIDDFRAKVESELTLTNHTFFDDAVLTPEQYDALLTTWCVYDGSLLTTPIEDVDLSGYTAHFCNGRLYLIAPNFTSEALKALLQKLDSDEDFAPNKVVFYGCNFESAKQRELNEALKSYANKKSIELDLVVRN
Consider B1, for which the Km (commonly the substrate concentration at which the rate is half of its maximum) in “purified protein” was 0.5 µM.

B2: EcoP1I DNA methyltransferase (M.EcoP1I) (enzyme, bacteriophage P1, UniProt P08763 1-646, looked up)
chain: B1 chain
notes: EcoP1I DNA methyltransferase, product of the mod gene of the EcoP1I Type III restriction-modification system of bacteriophage (prophage) P1; 1948 bp gene amplified with primers from the 5' and 3' ends of the open reading frame, cloned in the BamHI site of pET15b (construct pSN2); calculated mass ~75 kDa; No removal of the His6 tag is described. pET15b adds linker residues between the tag and the …
As for B2, the stoichiometry N (in general, a count of units in the complex or per binding partner) in series [1] was 2.
